Measurements: US20260070976A1 (Alector, published 2026)

Key:
[1] = target: T1, cell surface PILRA on human monocytes (human, UniProt Q9UKJ1 20-303); assay: cell-based or functional assay
recombinant human PILRB = recombinant human PILRB (human, UniProt Q9UKJ0 20-191); assay: SPR, Carterra LSA, steady-state fit
recombinant human PILRA = recombinant human PILRA (human, UniProt Q9UKJ1 20-197); assay: SPR, Carterra LSA, antibody amine-coupled, kinetic fit
[2] = target: T2, recombinant cynomolgus PILRA (SEQ ID NO:120) (cynomolgus monkey); assay: as above
T2 construct: also called cyno PILRA

[3] = target: cynomolgus PILRA on HEK293F cells (cynomolgus monkey, UniProt A0A7N9CRU1 20-292); assay: cA Kd of Table 9; method not stated (Example 8: HEK293F overexpressing cells, FACS)
[4] = target: T3, human PILRA G78 on HEK293F cells (human, UniProt Q9UKJ1 20-303); assay: hA Kd of Table 9; method not stated (Example 8: HEK293F overexpressing cells, FACS)
T3 construct: also called hA; G78 OE

[5] = target: T3, human PILRA G78 on HEK293F cells; assay: flow cytometry; HEK293F cells overexpressing human PILRA, goat anti-human IgG Alexa Fluor 647
Description: Conditioned media samples containing the tested anti-PILRA antibodies were assessed for binding to HEK293F cells overexpressing human PILRA (hA), human PILRB (hB), and cynomolgus PILRA (cA) by FACS. The conditioned media containing the tested antibodies were incubated with the cells for 30 min at 4° C., washed twice, and then detected with goat anti-human IgG secondary antibody (Alexa Fluor 647) at 1:1000 dilution. The cells were analyzed by flow cytometry on FACS Canto II, and for all cell lines, the reported MFI values were calculated for each conditioned media. These antibodies were evaluated for nonspecific binding using a baculovirus particle (BVP) assay (Jain T., Sun T., Durand S., Hall A., Houston N. R., Nett J. H., Sharkey B., Bobrowicz B., Caffry L, Yu Y., et al. Biophysical properties of the clinical-stage antibody landscape. Proc. Natl. Acad. Sci. USA. 2017; 114:944-949. Doi: 10.1073/pnas.1616408114.). The BVP scores are listed in Table 9, and the higher the score the more nonspecific binding that occurred.

[6] = target: T1, cell surface PILRA on human monocytes; assay: flow cytometry; Alexa Fluor 647-conjugated antibody on human CD14+ monocytes, Fc receptors blocked, 30 min on ice
Description: (§1) Anti-human PILRA antibodies X0 (PA-29) and its affinity matured variants were tested for their abilities to bind cell surface PILRA on human and cynomolgus monocytes. CD14+ monocytes were isolated from healthy human donors using a RosetteSep Human Monocyte Enrichment Cocktail kit (StemCell). Cynomolgus white blood cells were collected from cynomolgus whole blood. In both human and cynomolgus samples, the Fc receptor on the tested monocytes was blocked and the monocytes were treated with Alexa Fluor 647-conjugated PILRA antibodies for 30 minutes on ice. A dose response curve of antibodies X0 (PA-29), X1, X2, X7, X11, X12, X13, X14, X16, X18, and X20 was tested for binding to cell surface PILRA in human and cynomolgus monocytes, and antibodies bound to PILRA in a dose response manner. In another sample of human donor monocytes, a dose response curve of antibodies X0 (PA-29), X1, X2, X11, X13, X18, X29 (PA-43), and X34 (A6) was tested for binding to cell surface PILRA in human and cynomolgus monocytes, and antibodies bound to PILRA in a dose response manner.

[7] = target: T1, cell surface PILRA on human monocytes; assay: flow cytometry; Alexa Fluor 647-conjugated antibody on human CD14+ monocytes (second donor sample), Fc receptors blocked, 30 min on ice
Description: as §1

[8] = target: T3, human PILRA G78 on HEK293F cells; assay: flow cytometry blocking assay; antibody on HEK293F cells overexpressing human PILRA G78, then 5 ug/mL NPDC1 Fc as the blocked ligand; cell-bound NPDC1 Fc read as MFI
Description: A dose response curve of antibodies X0 (PA-29), X1, X2, X7, X11, X12, X13, X14, X16, X18, and X20 was assessed for modulating the binding of Neural Proliferation Differentiation and Control Protein 1 (NPDC1) Fc to 293 cells ectopically expressing human PILRA (HEK293F human PILRA G78 overexpressing cells). Conditioned media samples containing antibodies were incubated with human PILRA overexpressing cells for 30 minutes at 4° C., and then 5 μg/mL NPDC1 Fc was added to this mixture. After 30 minutes of incubation at 4° C., the cells were washed and cell-bound NPDC1 Fc was detected with anti-human IgG Alexa Fluor 647. The cells were analyzed by flow cytometry on FACS Canto II with the percentage of NPDC1 Fc binding in the presence of conditioned media relative to NPDC1 Fc binding alone was calculated. […] All tested antibodies decreased binding of NPDC1 to human PILRA.

T3 sequence (Q9UKJ1 20-303 R78G): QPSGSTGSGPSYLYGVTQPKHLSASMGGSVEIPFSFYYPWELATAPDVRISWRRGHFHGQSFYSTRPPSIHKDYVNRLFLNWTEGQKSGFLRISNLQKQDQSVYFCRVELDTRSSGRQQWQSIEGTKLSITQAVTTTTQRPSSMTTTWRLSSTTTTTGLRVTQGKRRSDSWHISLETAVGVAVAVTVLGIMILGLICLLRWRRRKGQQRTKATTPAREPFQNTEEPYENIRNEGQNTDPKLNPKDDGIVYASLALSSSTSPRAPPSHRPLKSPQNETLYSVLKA
T1 sequence (Q9UKJ1 20-303): as the sequence (Q9UKJ1 20-303 R78G) above, with G59R counted along it
Sequence of cynomolgus PILRA on HEK293F cells (A0A7N9CRU1 entry or part of it): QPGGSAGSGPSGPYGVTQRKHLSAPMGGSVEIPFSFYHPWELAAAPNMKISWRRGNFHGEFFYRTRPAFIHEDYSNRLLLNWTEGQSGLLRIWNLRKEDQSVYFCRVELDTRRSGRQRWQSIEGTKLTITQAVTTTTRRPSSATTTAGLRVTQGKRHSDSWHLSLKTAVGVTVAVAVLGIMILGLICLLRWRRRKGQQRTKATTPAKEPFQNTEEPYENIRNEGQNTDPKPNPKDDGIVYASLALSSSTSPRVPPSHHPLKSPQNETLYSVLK
T2 sequence (chain, as listed by the source limits assumed): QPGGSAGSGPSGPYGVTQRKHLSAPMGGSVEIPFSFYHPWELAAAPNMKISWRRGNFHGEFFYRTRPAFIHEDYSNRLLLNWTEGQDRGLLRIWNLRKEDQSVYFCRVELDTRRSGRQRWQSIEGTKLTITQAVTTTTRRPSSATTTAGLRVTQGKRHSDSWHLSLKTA
Sequence of recombinant human PILRA (Q9UKJ1 20-197 limits assumed): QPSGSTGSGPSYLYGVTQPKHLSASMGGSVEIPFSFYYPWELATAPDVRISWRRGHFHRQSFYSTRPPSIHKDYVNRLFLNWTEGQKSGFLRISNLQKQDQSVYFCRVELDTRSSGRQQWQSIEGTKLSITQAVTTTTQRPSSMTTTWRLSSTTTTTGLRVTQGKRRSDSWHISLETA
Sequence of recombinant human PILRB (Q9UKJ0 20-191 limits assumed): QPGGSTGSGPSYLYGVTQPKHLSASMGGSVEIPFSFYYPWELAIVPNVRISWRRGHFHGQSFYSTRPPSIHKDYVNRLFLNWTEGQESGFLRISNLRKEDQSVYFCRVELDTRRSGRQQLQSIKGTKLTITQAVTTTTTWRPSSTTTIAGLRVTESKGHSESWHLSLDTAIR

Hu Mono DR EC50 [1]: ~0.0004 µg/mL
Kd (recombinant human PILRB): 18 nM
Kd (recombinant human PILRA): 1.1 nM
Kd [2]: 0.3 nM
Kd [3]: 0.4 nM
Kd [4]: 0.2 nM
EC50 (read off the curve) [5]: ~0.3 µg/mL
EC50 (read off the curve) [6]: ~0.2 µg/mL
EC50 (read off the curve) [7]: ~0.1 µg/mL
IC50 (read off the curve) [8]: ~0.08 µg/mL
B1: X13 (antibody, human IgG4, V domains shown)
VH: QVQLVQSGAEVKKPGSSVKVSCKASGYNFLHYDVNWVRQAPGQGLEWMGGIIPIFGTANYAQKFQGRVTITADESTSTAYMELSSLRSEDTAVYYCATAVGAGWFDPWGQGTLVTVSS
VL: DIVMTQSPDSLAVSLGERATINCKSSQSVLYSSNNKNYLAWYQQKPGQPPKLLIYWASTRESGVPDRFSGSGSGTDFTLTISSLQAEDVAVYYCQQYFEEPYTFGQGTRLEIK
notes: conditioned media in the HEK293F assays
